# Biological target: human IgG (of human serum; IgG against AAV8 in AAV8 positive human serum pools CP16 and P1)
protein,measurement,value
IdeSORK (Xork) IgG protease (protein) LSKRKLLKKIEKKDTSSVLTQKKQTKTLWADGVQVDDKDFKPSTENFGTNYLAAEYGIGKGYYDINKKFDGTDDDLCSGVVAANQLHWWLDRNKDYIEKYRQQSKDNGVTIGNTDIFELNKLHDEDQSNFFDFIKKSFGNKFLQPERLLNMYINGYGYLTSQDKAKTSQPSPSKLNFFQKVFKNNLLTDKTPINDIDEFSSQTKNALQNHKVLAVSFASIKNRGLGHVVTVWGADFDENGKVVALYVTDSDDRSKNIGNAKLGMKKLRIEVSAQDSSTIKLTGFEDKNSGGSLRHLYSLSTGEQIWKKYFEETEKERIRLEEEADKAKLEQDRIQKEAEEKLALEKAEKERIRLEEEADKAKLEQDRIQKEAEEKLALEKAEKERIRLEEEADKAKLEQDRIQKEAEEKLALEKAEKERIRLEEEADKAKLEQDRIQKEAEEKLALEKAEKERIRLEEEAAKAKLEQEKQIATAPQPDKKQENTTSEQEKPAPTELPPLVNKADETETPRETAPDQTPSATNTFRKILPKMNAVSQFFSQLMGTIQIVFAFILKIFK,cleavage of human IgG in vitro,Xork cleaves human IgG in vitro with the same specificity and mechanism as IdeS
